Molecular target: epidermal growth factor (EGF) receptor expressed in 32D mouse myeloid cells (32D/EGFR) (UniProt P00533)

B1: amphiregulin (ligand)
chain: SVRVEQVVKPPQNKTESENTSDKPKRKKKGGKNGKNRRNRKKKNPCNAEFQNFCIHGECKYIEHLEAVTCKCQQEYFGERCGEKSMK
With B1 as the binder, how does the EC50 of AR for IL3-independent proliferation of 32D/EGFR cells, without EGF read?
Its EC50 of AR for IL3-independent proliferation of 32D/EGFR cells, without EGF is 8.3 nM.

— PMC3962550
